From publication PMC10955495

Key:
[1] = biological target: Cluc‐PtoE2Fa (Populus tomentosa); assay: split reporter (BiFC, NanoBiT); LCI of Cluc-PtoE2Fa with PtoDPb1^Hap1/Hap2-Nluc in young N. benthamiana leaves with co-expressed PtoWAK106-GFP (compared with GFP)
[2] = biological target: Cluc‐PtoE2Fa (Populus tomentosa); assay: split reporter (BiFC, NanoBiT); luciferase complementation imaging (LCI): firefly luciferase complementation (Nluc / Cluc fusions) in young N. benthamiana leaves; three biological replicates
[3] = biological target: Cluc‐PtoWAK106 (Populus tomentosa); assay: as above

Substance	fold increase in luciferase activity with PtoWAK106-GFP against GFP [1]	luciferase intensity with PtoWAK106-GFP, percent higher than with PtoDPb1^Hap2 [1]	luciferase activity, percent stronger than with PtoDPb1^Hap2 [2]	luciferase activity, percent higher than with PtoDPb1^Hap2 [3]
PtoDPb1^Hap2‐Nluc (natural protein)	3.8 fold			
PtoDPb1^Hap1‐Nluc (natural protein)	3.61 fold	47.3%	85.8%	37%
